For one series, the system named is NKX3.1 homeodomain. Nature of the series: CD thermal unfolding of NKX3.1 constructs. It counts as physicochemical. The conditions noted are these: with and without His tag sequence; within error (±1 °C).
In series [1] the test system is medium-chain acyl-CoA dehydrogenase. The following applies: activity drops significantly for changes in temperature as small as 3 °C; ref [21]; cited from earlier work.
In another series the test system is DNA. The following applies: previously observed for N-terminal construct; ref [6]; cited from earlier work.

B1: 114–184: NKX3.1 homeodomain construct, recombinant with N-terminal hexahistidine sequence (protein, UniProt Q99801 114-184, looked up, fragment)
chain: PRLPQTPKQPQKRSRAAFSHTQVIELERKFSHQKYLSAPERAHLAKNLKLTETQVKIWFQNRRYKTKRKQL
modifications: N-terminal His6 tag
In the case of B1, the “Effect of His tag on unfolding transition temperature” value with NKX3.1 homeodomain is reported as “the same unfolding transition temperature within error”.

B2: Y42H allele of human medium-chain acyl-CoA dehydrogenase: Y42H allele of human medium-chain acyl-CoA dehydrogenase (protein, UniProt P11310 26-421, looked up, variant Y42H)
Medium-chain specific …: KANRQREPGLGFSFEFTEQQKEFQATARKFAREEIIPVAAEHDKTGEYPVPLIRRAWELGLMNTHIPENCGGLGLGTFDACLISEELAYGCTGVQTAIEGNSLGQMPIIIAGNDQQKKKYLGRMTEEPLMCAYCVTEPGAGSDVAGIKTKAEKKGDEYIINGQKMWITNGGKANWYFLLARSDPDPKAPANKAFTGFIVEADTPGIQIGRKELNMGQRCSDTRGIVFEDVKVPKENVLIGDGAGFKVAMGAFDKTRPVVAAGAVGLAQRALDEATKYALERKTFGKLLVEHQAISFMLAEMAMKVELARMSYQRAAWEVDSGRRNTYYASIAKAFAGDIANQLATDAVQILGGNGFNTEYPVEKLMRDAKIYQIYEGTSQIQRLIVAREHIDKYKN
Turning to B2, the “Thermal stability and activity” value in series [1] is listed as “lower thermal stability”.

B3: 1–184: NKX3.1 (1–184) construct, recombinant with N-terminal hexahistidine sequence (protein, UniProt Q99801 1-184, looked up, fragment)
chain: MLRVPEPRPGEAKAEGAAPPTPSKPLTSFLIQDILRDGAQRQGGRTSSQRQRDPEPEPEPEPEGGRSRAGAQNDQLSTGPRAAPEEAETLAETEPERHLGSYLLDSENTSGALPRLPQTPKQPQKRSRAAFSHTQVIELERKFSHQKYLSAPERAHLAKNLKLTETQVKIWFQNRRYKTKRKQL
modifications: N-terminal His6 tag
For the molecule B3, in the series on DNA, the DNA binding result is given as “weaker DNA binding”.

The values above are taken from publication PMC2783756 (Biochemistry, 2009).
